Assays:
Assay in all cases: cell-based or functional assay
[1] = target: FcγRIIa on M2c macrophages (secondary ADCP assay) (UniProt P12318)
[2] = target: FcγRIIIa on NK cells (secondary ADCC assays) (UniProt P08637)
[3] = target: human FcγRIIa-H variant on Jurkat effector cells (human) (UniProt P12318)
[4] = target: FcγRIIIa on Jurkat effector cells (UniProt P08637)

Q: How did the EC50 (nM) Mean [1] turn out when “afucosylated anti-CD20 IgG1 monoclonal antibody (obinutuzumab)” was run?
A: Its EC50 (nM) Mean is 0.37 nM.

Q: Which EC50 (nM) Mean [2] does the source give for “afucosylated anti-PD-L1 IgG1 monoclonal antibody (avelumab)” here?
A: Its EC50 (nM) Mean is 0.0054 nM.

Q: “fucosylated anti-CD20 IgG1 monoclonal antibody (obinutuzumab)” was tested. Which EC50 (nM) Mean [3] did it give?
A: The EC50 (nM) Mean was 7.1 nM.

Q: What about the EC50 (nM) Mean [4] of the same substance?
A: The EC50 (nM) Mean was 7.1 nM.

Q: What about the EC50 (nM) Mean [1] of the same substance?
A: The EC50 (nM) Mean was 0.82 nM.

Q: What about the EC50 (nM) Mean [2] of the same substance?
A: Its EC50 (nM) Mean is 0.033 nM.

Q: For “fucosylated anti-PD-L1 IgG1 monoclonal antibody (avelumab)”, which EC50 (nM) Mean [4] is on record?
A: Its EC50 (nM) Mean is 0.049 nM.

From patent US20210317227A1
